Values of other authors as cited in paper PMC8141935.

Target: GABAA receptor α3 subunit intracellular loop (UniProt P34903)
Sequence (P34903 361-457): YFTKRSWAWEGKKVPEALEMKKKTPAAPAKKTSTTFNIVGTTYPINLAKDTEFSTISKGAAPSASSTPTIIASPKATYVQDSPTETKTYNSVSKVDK

Sequence of gephyrin (Q9NQX3 whole entry): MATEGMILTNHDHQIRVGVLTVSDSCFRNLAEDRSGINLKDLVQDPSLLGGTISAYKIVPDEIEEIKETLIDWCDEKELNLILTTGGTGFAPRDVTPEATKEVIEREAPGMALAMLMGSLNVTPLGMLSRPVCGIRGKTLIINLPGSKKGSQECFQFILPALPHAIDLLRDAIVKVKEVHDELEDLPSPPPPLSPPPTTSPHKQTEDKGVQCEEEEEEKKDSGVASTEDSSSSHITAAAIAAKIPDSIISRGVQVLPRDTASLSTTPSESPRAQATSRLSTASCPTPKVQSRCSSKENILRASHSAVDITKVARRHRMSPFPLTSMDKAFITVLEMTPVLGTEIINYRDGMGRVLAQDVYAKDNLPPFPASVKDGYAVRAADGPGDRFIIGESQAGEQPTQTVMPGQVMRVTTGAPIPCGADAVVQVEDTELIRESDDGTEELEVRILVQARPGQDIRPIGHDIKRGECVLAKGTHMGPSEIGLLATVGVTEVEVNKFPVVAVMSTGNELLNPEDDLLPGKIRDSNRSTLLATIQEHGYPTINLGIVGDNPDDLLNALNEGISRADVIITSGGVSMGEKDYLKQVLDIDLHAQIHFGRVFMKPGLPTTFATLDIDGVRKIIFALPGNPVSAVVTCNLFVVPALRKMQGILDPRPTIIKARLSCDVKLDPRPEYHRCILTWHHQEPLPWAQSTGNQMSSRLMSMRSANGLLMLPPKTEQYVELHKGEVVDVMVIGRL

Substance: gephyrin (from UniProt Q9NQX3)
- Kd: 5.3 µM
